US20230407373A1 (priority 2020, published 2023)
Read-outs that look alike come from different tables or passages of the source.

System: HCoV-OC43 gRNA and sgRNA
Type: binding
Settings: for target (unweighted spectral count, OC43 Probe II): OC43 Probe II capture on infected cells; for background (unweighted spectral count, no-probe control): no-probe control on infected cells

Row | Molecule | target (unweighted spectral count, OC43 Probe II) (type n_48_v, 48 hpi) | background (unweighted spectral count, no-probe control) (type n_48_v, 48 hpi) | further results
1 | NOP56 (protein, UniProt O00567 1-594, looked up) Nucleolar protein 56: MVLLHVLFEHAVGYALLALKEVEEISLLQPQVEESVLNLGKFHSIVRLVAFCPFASSQVALENANAVSEGVVHEDLRLLLETHLPSKKKKVLLGVGDPKIGAAIQEELGYNCQTGGVIAEILRGVRLHFHNLVKGLTDLSACKAQLGLGHSYSRAKVKFNVNRVDNMIIQSISLLDQLDKDINTFSMRVREWYGYHFPELVKIINDNATYCRLAQFIGNRRELNEDKLEKLEELTMDGAKAKAILDASRSSMGMDISAIDLINIESFSSRVVSLSEYRQSLHTYLRSKMSQVAPSLSALIGEAVGARLIAHAGSLTNLAKYPASTVQILGAEKALFRALKTRGNTPKYGLIFHSTFIGRAAAKNKGRISRYLANKCSIASRIDCFSEVPTSVFGEKLREQVEERLSFYETGEIPRKNLDVMKEAMVQAEEAAAEITRKLEKQEKKRLKKEKKRLAALALASSENSSSTPEECEEMSEKPKKKKKQKPQEVPQENGMEDPSISFSKPKKKKSFSKEELMSSDLEETAGSTSIPKRKKSTPKEETVNDPEEAGHRSGSKKKRKFSKEEPVSSGPEEAVGKSSSKKKKKFHKASQED | 5 | 1 | 
2 | VIL1 (protein, UniProt P09327 2-827, looked up) Villin-1: TKLSAQVKGSLNITTPGLQIWRIEAMQMVPVPSSTFGSFFDGDCYIILAIHKTASSLSYDIHYWIGQDSSLDEQGAAAIYTTQMDDFLKGRAVQHREVQGNESEAFRGYFKQGLVIRKGGVASGMKHVETNSYDVQRLLHVKGKRNVVAGEVEMSWKSFNRGDVFLLDLGKLIIQWNGPESTRMERLRGMTLAKEIRDQERGGRTYVGVVDGENELASPKLMEVMNHVLGKRRELKAAVPDTVVEPALKAALKLYHVSDSEGNLVVREVATRPLTQDLLSHEDCYILDQGGLKIYVWKGKKANEQEKKGAMSHALNFIKAKQYPPSTQVEVQNDGAESAVFQQLFQKWTASNRTSGLGKTHTVGSVAKVEQVKFDATSMHVKPQVAAQQKMVDDGSGEVQVWRIENLELVPVDSKWLGHFYGGDCYLLLYTYLIGEKQHYLLYVWQGSQASQDEITASAYQAVILDQKYNGEPVQIRVPMGKEPPHLMSIFKGRMVVYQGGTSRTNNLETGPSTRLFQVQGTGANNTKAFEVPARANFLNSNDVFVLKTQSCCYLWCGKGCSGDEREMAKMVADTISRTEKQVVVEGQEPANFWMALGGKAPYANTKRLQEENLVITPRLFECSNKTGRFLATEIPDFNQDDLEEDDVFLLDVWDQVFFWIGKHANEEEKKAAATTAQEYLKTHPSGRDPETPIIVVKQGHEPPTFTGWFLAWDPFKWSNTKSYEDLKAELGNSRDWSQITAEVTSPKVDVFNANSNLSSGPLPIFPLEQLVNKPVEELPEGVDPSRKEEHLSIEDFTQAFGMTPAAFSALPRWKQQNLKKEKGLF | 5 | 1 | 
3 | EEF1A2 (protein, UniProt Q05639 2-463, looked up) Elongation factor 1-alpha 2: GKEKTHINIVVIGHVDSGKSTTTGHLIYKCGGIDKRTIEKFEKEAAEMGKGSFKYAWVLDKLKAERERGITIDISLWKFETTKYYITIIDAPGHRDFIKNMITGTSQADCAVLIVAAGVGEFEAGISKNGQTREHALLAYTLGVKQLIVGVNKMDSTEPAYSEKRYDEIVKEVSAYIKKIGYNPATVPFVPISGWHGDNMLEPSPNMPWFKGWKVERKEGNASGVSLLEALDTILPPTRPTDKPLRLPLQDVYKIGGIGTVPVGRVETGILRPGMVVTFAPVNITTEVKSVEMHHEALSEALPGDNVGFNVKNVSVKDIRRGNVCGDSKSDPPQEAAQFTSQVIILNHPGQISAGYSPVIDCHTAHIACKFAELKEKIDRRSGKKLEDNPKSLKSGDAAIVEMVPGKPMCVESFSQYPPLGRFAVRDMRQTVAVGVIKNVEKKSGGAGKVTKSAQKAQKAGK | 5 | 1 | 
4 | GANAB (protein, UniProt Q14697 29-944, looked up) Neutral alpha-glucosidase AB: ITLAVDRSNFKTCEESSFCKRQRSIRPGLSPYRALLDSLQLGPDSLTVHLIHEVTKVLLVLELQGLQKNMTRFRIDELEPRRPRYRVPDVLVADPPIARLSVSGRDENSVELTMAEGPYKIILTARPFRLDLLEDRSLLLSVNARGLLEFEHQRAPRVSQGSKDPAEGDGAQPEETPRDGDKPEETQGKAEKDEPGAWEETFKTHSDSKPYGPMSVGLDFSLPGMEHVYGIPEHADNLRLKVTEGGEPYRLYNLDVFQYELYNPMALYGSVPVLLAHNPHRDLGIFWLNAAETWVDISSNTAGKTLFGKMMDYLQGSGETPQTDVRWMSETGIIDVFLLLGPSISDVFRQYASLTGTQALPPLFSLGYHQSRWNYRDEADVLEVDQGFDDHNLPCDVIWLDIEHADGKRYFTWDPSRFPQPRTMLERLASKRRKLVAIVDPHIKVDSGYRVHEELRNLGLYVKTRDGSDYEGWCWPGSAGYPDFTNPTMRAWWANMFSYDNYEGSAPNLFVWNDMNEPSVFNGPEVTMLKDAQHYGGWEHRDVHNIYGLYVHMATADGLRQRSGGMERPFVLARAFFAGSQRFGAVWTGDNTAEWDHLKISIPMCLSLGLVGLSFCGADVGGFFKNPEPELLVRWYQMGAYQPFFRAHAHLDTGRREPWLLPSQHNDIIRDALGQRYSLLPFWYTLLYQAHREGIPVMRPLWVQYPQDVTTFNIDDQYLLGDALLVHPVSDSGAHGVQVYLPGQGEVWYDIQSYQKHHGPQTLYLPVTLSSIPVFQRGGTIVPRWMRVRRSSECMKDDPITLFVALSPQGTAQGELFLDDGHTFNYQTRQEFLLRRFSFSGNTLVSSSADPEGHFETPIWIERVVIIGAGKPAAVVLQTKGSPESRLSFQHDPETSVLVLRKPGINVASDWSIHLR | 5 | 1 | 
5 | DHX15 (protein, UniProt O43143 1-795, looked up) ATP-dependent RNA helicase …: MSKRHRLDLGEDYPSGKKRAGTDGKDRDRDRDREDRSKDRDRERDRGDREREREKEKEKELRASTNAMLISAGLPPLKASHSAHSTHSAHSTHSTHSAHSTHAGHAGHTSLPQCINPFTNLPHTPRYYDILKKRLQLPVWEYKDRFTDILVRHQSFVLVGETGSGKTTQIPQWCVEYMRSLPGPKRGVACTQPRRVAAMSVAQRVADEMDVMLGQEVGYSIRFEDCSSAKTILKYMTDGMLLREAMNDPLLERYGVIILDEAHERTLATDILMGVLKEVVRQRSDLKVIVMSATLDAGKFQIYFDNCPLLTIPGRTHPVEIFYTPEPERDYLEAAIRTVIQIHMCEEEEGDLLLFLTGQEEIDEACKRIKREVDDLGPEVGDIKIIPLYSTLPPQQQQRIFEPPPPKKQNGAIGRKVVVSTNIAETSLTIDGVVFVIDPGFAKQKVYNPRIRVESLLVTAISKASAQQRAGRAGRTRPGKCFRLYTEKAYKTEMQDNTYPEILRSNLGSVVLQLKKLGIDDLVHFDFMDPPAPETLMRALELLNYLAALNDDGDLTELGSMMAEFPLDPQLAKMVIASCDYNCSNEVLSITAMLSVPQCFVRPTEAKKAADEAKMRFAHIDGDHLTLLNVYHAFKQNHESVQWCYDNFINYRSLMSADNVRQQLSRIMDRFNLPRRSTDFTSRDYYINIRKALVTGYFMQVAHLERTGHYLTVKDNQVVQLHPSTVLDHKPEWVLYNEFVLTTKNYIRTCTDIKPEWLVKIAPQYYDMSNFPQCEAKRQLDRIIAKLQSKEYSQY | 13 | 3 | 
6 | TUBB (protein, UniProt P07437 1-444, looked up) Tubulin beta chain: MREIVHIQAGQCGNQIGAKFWEVISDEHGIDPTGTYHGDSDLQLDRISVYYNEATGGKYVPRAILVDLEPGTMDSVRSGPFGQIFRPDNFVFGQSGAGNNWAKGHYTEGAELVDSVLDVVRKEAESCDCLQGFQLTHSLGGGTGSGMGTLLISKIREEYPDRIMNTFSVVPSPKVSDTVVEPYNATLSVHQLVENTDETYCIDNEALYDICFRTLKLTTPTYGDLNHLVSATMSGVTTCLRFPGQLNADLRKLAVNMVPFPRLHFFMPGFAPLTSRGSQQYRALTVPELTQQVFDAKNMMAACDPRHGRYLTVAAVFRGRMSMKEVDEQMLNVQNKNSSYFVEWIPNNVKTAVCDIPPRGLKMAVTFIGNSTAIQELFKRISEQFTAMFRRKAFLHWYTGEGMDEMEFTEAESNMNDLVSEYQQYQDATAEEEEDFGEEAEEEA |  |  | target (unweighted spectral count) (OC43 Probe II, 12 hpi (type n_12_v), infected cells, tested against no-probe control): 11; target (unweighted spectral count, OC43 Probe II) (type n_36_v, 36 hpi): 11; background (unweighted spectral count, no-probe control) (type n_36_v, 36 hpi): 4
7 | NFXL1 (protein, UniProt Q6ZNB6 1-911, looked up) NF-X1-type zinc finger …: MEASWRQVAGGRGRSRGRATAAPSGNGVHLRGAGGGREKGSVGAVPSGTSPGGVATTAAAGSRHSPAGSQALQTTAASELMSQKKFEEIKKANQAAARKLVEEQFSSSSEEGDEDFEGKQGKILANTFITYTTQTDGDTRELERTKQYVNEAFQAGAMTCLICIASVKRNQAVWSCSGCFCIFHMPCIQKWAKDSQFLVSSVTDDDFGKKDCPWPCPKCRFEYKRSETPSRYYCYCGKVEDPPLDPWLVPHSCGQVCEREFKPPCGHKCLLLCHPGPCPPCPKMVTTTCYCKKAKPIPRRCSAKEWSCQLPCGQKLLCGQHKCENPCHAGSCQPCPRVSRQKCVCGKKVAERSCASPLWHCDQVCGKTLPCGNHTCEQVCHVGACGECPRSGKRFCPCQKSKFSLPCTEDVPTCGDSCDKVLECGIHRCSQRCHRGPCETCRQEVEKHCRCGKHTKRMPCHKPYLCETKCVKMRDCQKHQCRRKCCPGNCPPCDQNCGRTLGCRNHKCPSVCHRGSCYPCPETVDVKCNCGNTKVTVPCGRERTTRPPKCKEQCSRPPTCHHTSQEKHRCHFGSCPPCHQPCQKVLEKCGHLCPAPCHDQALIKQTGRHQPTGPWEQPSEPAFIQTALPCPPCQVPIPMECLGKHEVSPLPCHAVGPYSCKRVCGRILDCQNHTCMKECHKVTKTDGCTGKNKAGPECLHCEEGCSKSRPLGCLHPCILRCHPGECPPCVQMLRIKCHCKITSLYVECRKITTADVNEKNLLSCCKNQCPKELPCGHRCKEMCHPGECPFNCNQKVKLRCPCKRIKKELQCNKVRENQVSIECDTTCKEMKRKASEIKEAEAKAALEEEKRRQQAELEAFENRLKGRRKKNRKRDEVAVELSLWQKHKYYLISVCGVVVVVFAWYITHDVN | 12 | 3 | 
8 | NOP58 (protein, UniProt Q9Y2X3 1-529, looked up) Nucleolar protein 58: MLVLFETSVGYAIFKVLNEKKLQEVDSLWKEFETPEKANKIVKLKHFEKFQDTAEALAAFTALMEGKINKQLKKVLKKIVKEAHEPLAVADAKLGGVIKEKLNLSCIHSPVVNELMRGIRSQMDGLIPGVEPREMAAMCLGLAHSLSRYRLKFSADKVDTMIVQAISLLDDLDKELNNYIMRCREWYGWHFPELGKIISDNLTYCKCLQKVGDRKNYASAKLSELLPEEVEAEVKAAAEISMGTEVSEEDICNILHLCTQVIEISEYRTQLYEYLQNRMMAIAPNVTVMVGELVGARLIAHAGSLLNLAKHAASTVQILGAEKALFRALKSRRDTPKYGLIYHASLVGQTSPKHKGKISRMLAAKTVLAIRYDAFGEDSSSAMGVENRAKLEARLRTLEDRGIRKISGTGKALAKTEKYEHKSEVKTYDPSGDSTLPTCSKKRKIEQVDKEDEITEKKAKKAKIKVKVEEEEEEKVAEEEETSVKKKKKRGKKKHIKEEPLSEEEPCTSTAIASPEKKKKKKKKRENED |  |  | target (unweighted spectral count, OC43 Probe II capture) (36 hpi, type n_36_v, tested against no-probe control, FDR<10%): 4
